Test results from patent US20230192890A1.

Columns and labels:
[1] = molecular target: T1, Ala mutant SEQ ID NO: 27 (human); test: ELISA, peptide on plate (10 ug/mL)
T1 sequence (peptide): AENMDDQWMQDEMEIGY

[2] = molecular target: T2, Ala mutant SEQ ID NO: 28 (human); test: ELISA, peptide on plate (10 ug/mL)
T2 sequence (peptide): EANMDDQWMQDEMEIGY

[3] = molecular target: T3, Ala mutant SEQ ID NO: 29 (human); test: ELISA, peptide on plate (10 ug/mL)
T3 sequence (peptide): EEAMDDQWMQDEMEIGY

[4] = molecular target: T4, Ala mutant SEQ ID NO: 30 (human); test: ELISA, peptide on plate (10 ug/mL)
T4 sequence (peptide): EENADDQWMQDEMEIGY

[5] = molecular target: T5, Ala mutant SEQ ID NO: 31 (human); test: ELISA, peptide on plate (10 ug/mL)
T5 sequence (peptide): EENMADQWMQDEMEIGY

[6] = molecular target: T6, Ala mutant SEQ ID NO: 33 (human); test: ELISA, peptide on plate (10 ug/mL)
T6 sequence (peptide): EENMDDAWMQDEMEIGY

[7] = molecular target: T7, Ala mutant SEQ ID NO: 36 (human); test: ELISA, peptide on plate (10 ug/mL)
T7 sequence (peptide): EENMDDQWMADEMEIGY

[8] = molecular target: T8, Ala mutant SEQ ID NO: 37 (human); test: ELISA, peptide on plate (10 ug/mL)
T8 sequence (peptide): EENMDDQWMQAEMEIGY

[9] = molecular target: T9, Ala mutant SEQ ID NO: 38 (human); test: ELISA, peptide on plate (10 ug/mL)
T9 sequence (peptide): EENMDDQWMQDAMEIGY

[10] = molecular target: T10, Ala mutant SEQ ID NO: 39 (human); test: ELISA, peptide on plate (10 ug/mL)
T10 sequence (peptide): EENMDDQWMQDEAEIGY

[11] = molecular target: T11, Ala mutant SEQ ID NO: 40 (human); test: ELISA, peptide on plate (10 ug/mL)
T11 sequence (peptide): EENMDDQWMQDEMAIGY

[12] = molecular target: T12, Ala mutant SEQ ID NO: 41 (human); test: ELISA, peptide on plate (10 ug/mL)
T12 sequence (peptide): EENMDDQWMQDEMEAGY

[13] = molecular target: T13, Ala mutant SEQ ID NO: 42 (human); test: ELISA, peptide on plate (10 ug/mL)
T13 sequence (peptide): EENMDDQWMQDEMEIAY

[14] = molecular target: T14, Ala mutant SEQ ID NO: 43 (human); test: ELISA, peptide on plate (10 ug/mL)
T14 sequence (peptide): EENMDDQWMQDEMEIGA

[15] = molecular target: T15, Ala mutant having 3-amino acid substitution, SEQ ID NO: 44 (human); test: ELISA, peptide on plate (10 ug/mL)
T15 sequence (peptide): AAAMDDQWMQDEMEIGY

[16] = molecular target: T16, Ala mutant having 3-amino acid substitution, SEQ ID NO: 46 (human); test: ELISA, peptide on plate (10 ug/mL)
T16 sequence (peptide): EENMDDAAAQDEMEIGY

[17] = molecular target: T17, Ala mutant having 3-amino acid substitution, SEQ ID NO: 47 (human); test: ELISA, peptide on plate (10 ug/mL)
T17 sequence (peptide): EENMDDQWMAAAMEIGY

[18] = molecular target: T18, Ala mutant having 3-amino acid substitution, SEQ ID NO: 48 (human); test: ELISA, peptide on plate (10 ug/mL)
T18 sequence (peptide): EENMDDQWMQDEAAAGY

[19] = molecular target: T19, Ala mutant having 3-amino acid substitution, SEQ ID NO: 49 (human); test: ELISA, peptide on plate (10 ug/mL)
T19 sequence (peptide): EENMDDQWMQDEMEIAA

[20] = molecular target: T20, TA0096 (peptide antigen corresponding to positions 340 to 356 of PAD4) (human); test: ELISA, peptide on plate (10 ug/mL)
T20 sequence (peptide): EENMDDQWMQDEMEIGY

[21] = molecular target: full-length recombinant mouse PAD4 (mouse) (UniProt Q9Z183); test: ELISA, mouse PAD4 on plate, antibody 1 ug/mL
Sequence of full-length recombinant mouse PAD4 (mouse) (Q9Z183 whole entry): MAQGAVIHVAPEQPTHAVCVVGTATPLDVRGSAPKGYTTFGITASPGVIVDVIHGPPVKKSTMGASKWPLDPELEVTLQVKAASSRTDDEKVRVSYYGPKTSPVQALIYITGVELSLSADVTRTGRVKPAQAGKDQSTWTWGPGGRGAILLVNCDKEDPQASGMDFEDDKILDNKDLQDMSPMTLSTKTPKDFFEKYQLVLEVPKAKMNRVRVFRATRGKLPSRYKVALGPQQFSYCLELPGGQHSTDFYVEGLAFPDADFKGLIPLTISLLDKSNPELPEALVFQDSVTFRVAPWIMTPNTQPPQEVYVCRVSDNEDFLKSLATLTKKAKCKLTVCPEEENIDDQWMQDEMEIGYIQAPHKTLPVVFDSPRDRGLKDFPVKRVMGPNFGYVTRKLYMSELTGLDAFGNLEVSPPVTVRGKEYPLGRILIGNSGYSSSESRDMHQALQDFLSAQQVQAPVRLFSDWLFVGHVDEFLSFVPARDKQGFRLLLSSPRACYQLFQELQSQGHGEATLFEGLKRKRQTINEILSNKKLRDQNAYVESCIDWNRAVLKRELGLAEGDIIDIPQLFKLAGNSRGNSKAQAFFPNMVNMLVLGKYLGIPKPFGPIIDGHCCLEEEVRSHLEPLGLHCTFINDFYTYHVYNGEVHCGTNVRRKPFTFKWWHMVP

[22] = molecular target: full-length recombinant mouse PAD4 (mouse) (UniProt Q9Z183); test: ELISA, mouse PAD4 on plate, antibody 0.25 ug/mL
[23] = molecular target: full-length recombinant mouse PAD4 (mouse) (UniProt Q9Z183); test: ELISA, mouse PAD4 on plate, antibody 0.0625 ug/mL
[24] = molecular target: full-length recombinant mouse PAD4 (mouse) (UniProt Q9Z183); test: ELISA, mouse PAD4 on plate, antibody 0.015625 ug/mL
[25] = molecular target: full-length recombinant mouse PAD4 (mouse) (UniProt Q9Z183); test: ELISA, mouse PAD4 on plate, antibody 0.0002441 ug/mL
[26] = molecular target: full-length recombinant mouse PAD4 (mouse) (UniProt Q9Z183); test: ELISA, mouse PAD4 on plate, antibody 0.0009766 ug/mL
[27] = molecular target: full-length recombinant mouse PAD4 (mouse) (UniProt Q9Z183); test: ELISA, mouse PAD4 on plate, antibody 0.0039063 ug/mL
[28] = molecular target: full-length recombinant mouse PAD4 (mouse) (UniProt Q9Z183); test: ELISA, mouse PAD4 on plate, antibody 6.104E-05 ug/mL

B1: G9 (antibody, IgG1, V domains shown)
VH: AVTLDESGGGLQTPGGALSLVCKASGFTFSTYAMGWMRQAPGKGLEYVAAIRNDGSWTGYGAAVKGRATILRDNGQSTVRLQLSNLRAEDTGTYYCAKYTGSSGGSIGAWGHGTEVIVS
VL: AVTQPASVSANLGGTVEITCSGGGRYYYGWYQQKSPGSAPVTVIYANDKRPSDIPSRFSGSKSGSTGTLTITGVQAEDEAVYFCGSAETSSYVFGAGTTLTVL
absorbance 490 nm/630 nm [1]: 1.93 OD | absorbance 490 nm/630 nm [2]: 1.96 OD | absorbance 490 nm/630 nm [3]: 1.94 OD | absorbance 490 nm/630 nm [4]: 2.03 OD | absorbance 490 nm/630 nm [5]: 1.48 OD | absorbance 490 nm/630 nm [6]: 1.98 OD | absorbance 490 nm/630 nm [7]: 1.87 OD | absorbance 490 nm/630 nm [8]: 1.88 OD | absorbance 490 nm/630 nm [9]: 1.96 OD | absorbance 490 nm/630 nm [10]: 1.87 OD | absorbance 490 nm/630 nm [11]: 1.88 OD | absorbance 490 nm/630 nm [12]: 1.89 OD | absorbance 490 nm/630 nm [13]: 1.85 OD | absorbance 490 nm/630 nm [14]: 1.88 OD | absorbance 490 nm/630 nm [15]: 1.92 OD | absorbance 490 nm/630 nm [16]: 0.131 OD | absorbance 490 nm/630 nm [17]: 1.85 OD | absorbance 490 nm/630 nm [18]: 1.89 OD | absorbance 490 nm/630 nm [19]: 1.92 OD | absorbance 490 nm/630 nm [20]: 1.85 OD | absorbance 490 nm/630 nm [21]: 2.3 OD | absorbance 490 nm/630 nm [22]: 2.25 OD | absorbance 490 nm/630 nm [23]: 2.24 OD | absorbance 490 nm/630 nm [24]: 2.21 OD | absorbance 490 nm/630 nm [25]: 0.181 OD | absorbance 490 nm/630 nm [26]: 0.542 OD | absorbance 490 nm/630 nm [27]: 1.39 OD | absorbance 490 nm/630 nm [28]: 0.079 OD
